The values that follow are results of earlier work, collected in patent US20230303640A1, “EXENDIN-4 PEPTIDE ANALOGS” (TXP Pharma AG, priority 2020, published 2023).

This data set has as its target T1, human GLP-1 receptor (Homo sapiens, UniProt P43220).
T1 construct: expressed in transfected cells; host or cells: CHO-K1
The following applies: FIG. 3; data included and detailed in PCT/IB2015/000553 (WO/2015/162485).

T1 sequence (P43220 24-463): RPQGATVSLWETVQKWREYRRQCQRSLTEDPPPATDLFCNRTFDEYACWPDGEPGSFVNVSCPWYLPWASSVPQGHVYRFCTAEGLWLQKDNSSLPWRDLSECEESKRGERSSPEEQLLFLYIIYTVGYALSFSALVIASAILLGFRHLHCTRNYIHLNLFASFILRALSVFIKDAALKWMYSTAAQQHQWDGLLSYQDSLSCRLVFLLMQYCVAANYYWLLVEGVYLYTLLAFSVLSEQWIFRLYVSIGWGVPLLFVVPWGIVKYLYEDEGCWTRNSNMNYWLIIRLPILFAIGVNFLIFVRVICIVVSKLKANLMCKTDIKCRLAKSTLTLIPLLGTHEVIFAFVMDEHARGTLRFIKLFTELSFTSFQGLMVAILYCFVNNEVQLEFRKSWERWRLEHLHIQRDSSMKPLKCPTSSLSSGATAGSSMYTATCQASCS

In the case of “Ac-His-Gly-Glu-Gly-Thr-Phe-Thr-Ser-Asp-Val-Ser-Ser-Tyr-Leu-Glu-Gly-Gln-Ala-Ala-Lys-Glu-Phe-Ile-Ala-Trp-Leu-Val-Lys-Gly-Arg-Gly-(Lys-Lys-Ac)Lys-NH2 (HGEGTFTSDVSSYLEGQAAKEFIAWLVKGRG; N-acetyl; C-terminal (Lys-Lys-Ac)Lys amide; printed: His-Gly-Glu-Gly-Thr-Phe-Thr-Ser-Asp-Val-Ser-Ser-Tyr-Leu-Glu-Gly-Gln-Ala-Ala-Lys-Glu-Phe-Ile-Ala-Trp-Leu-Val-Lys-Gly-Arg-Gly-) [Analogue 3, GLP-1 analogue with C-terminal BAP, from WO/2015/162485]”, the EC50 (commonly the concentration at which the effect is half-maximal) was 40 pM.
